{"source": "paper PMC2995059", "binders": {"B1": {"name": "endogenous Drosha (enzyme)", "chain": "MMQGNTCHRMSFHPGRGCPRGRGGHGARPSAPSFRPQNLRLLHPQQPPVQYQYEPPSAPSTTFSNSPAPNFLPPRPDFVPFPPPMPPSAQGPLPPCPIRPPFPNHQMRHPFPVPPCFPPMPPPMPCPNNPPVPGAPPGQGTFPFMMPPPSMPHPPPPPVMPQQVNYQYPPGYSHHNFPPPSFNSFQNNPSSFLPSANNSSSPHFRHLPPYPLPKAPSERRSPERLKHYDDHRHRDHSHGRGERHRSLDRRERGRSPDRRRQDSRYRSDYDRGRTPSRHRSYERSRERERERHRHRDNRRSPSLERSYKKEYKRSGRSYGLSVVPEPAGCTPELPGEIIKNTDSWAPPLEIVNHRSPSREKKRARWEEEKDRWSDNQSSGKDKNYTSIKEKEPEETMPDKNEEEEEELLKPVWIRCTHSENYYSSDPMDQVGDSTVVGTSRLRDLYDKFEEELGSRQEKAKAARPPWEPPKTKLDEDLESSSESECESDEDSTCSSSSDSEVFDVIAEIKRKKAHPDRLHDELWYNDPGQMNDGPLCKCSAKARRTGIRHSIYPGEEAIKPCRPMTNNAGRLFHYRITVSPPTNFLTDRPTVIEYDDHEYIFEGFSMFAHAPLTNIPLCKVIRFNIDYTIHFIEEMMPENFCVKGLELFSLFLFRDILELYDWNLKGPLFEDSPPCCPRFHFMPRFVRFLPDGGKEVLSMHQILLYLLRCSKALVPEEEIANMLQWEELEWQKYAEECKGMIVTNPGTKPSSVRIDQLDREQFNPDVITFPIIVHFGIRPAQLSYAGDPQYQKLWKSYVKLRHLLANSPKVKQTDKQKLAQREEALQKIRQKNTMRREVTVELSSQGFWKTGIRSDVCQHAMMLPVLTHHIRYHQCLMHLDKLIGYTFQDRCLLQLAMTHPSHHLNFGMNPDHARNSLSNCGIRQPKYGDRKVHHMHMRKKGINTLINIMSRLGQDDPTPSRINHNERLEFLGDAVVEFLTSVHLYYLFPSLEEGGLATYRTAIVQNQHLAMLAKKLELDRFMLYAHGPDLCRESDLRHAMANCFEALIGAVYLEGSLEEAKQLFGRLLFNDPDLREVWLNYPLHPLQLQEPNTDRQLIETSPVLQKLTEFEEAIGVIFTHVRLLARAFTLRTVGFNHLTLGHNQRMEFLGDSIMQLVATEYLFIHFPDHHEGHLTLLRSSLVNNRTQAKVAEELGMQEYAITNDKTKRPVALRTKTLADLLESFIAALYIDKDLEYVHTFMNVCFFPRLKEFILNQDWNDPKSQLQQCCLTLRTEGKEPDIPLYKTLQTVGPSHARTYTVAVYFKGERIGCGKGPSIQQAEMGAAMDALEKYNFPQMAHQKRFIERKYRQELKEMRWEREHQEREPDETEDIKK"}}, "molecular_target": "HA-tagged full-size GAM (GAM/ZFp/ZNF512B) (human) (UniProt Q96KM6)", "sequence (Q96KM6 whole entry)": "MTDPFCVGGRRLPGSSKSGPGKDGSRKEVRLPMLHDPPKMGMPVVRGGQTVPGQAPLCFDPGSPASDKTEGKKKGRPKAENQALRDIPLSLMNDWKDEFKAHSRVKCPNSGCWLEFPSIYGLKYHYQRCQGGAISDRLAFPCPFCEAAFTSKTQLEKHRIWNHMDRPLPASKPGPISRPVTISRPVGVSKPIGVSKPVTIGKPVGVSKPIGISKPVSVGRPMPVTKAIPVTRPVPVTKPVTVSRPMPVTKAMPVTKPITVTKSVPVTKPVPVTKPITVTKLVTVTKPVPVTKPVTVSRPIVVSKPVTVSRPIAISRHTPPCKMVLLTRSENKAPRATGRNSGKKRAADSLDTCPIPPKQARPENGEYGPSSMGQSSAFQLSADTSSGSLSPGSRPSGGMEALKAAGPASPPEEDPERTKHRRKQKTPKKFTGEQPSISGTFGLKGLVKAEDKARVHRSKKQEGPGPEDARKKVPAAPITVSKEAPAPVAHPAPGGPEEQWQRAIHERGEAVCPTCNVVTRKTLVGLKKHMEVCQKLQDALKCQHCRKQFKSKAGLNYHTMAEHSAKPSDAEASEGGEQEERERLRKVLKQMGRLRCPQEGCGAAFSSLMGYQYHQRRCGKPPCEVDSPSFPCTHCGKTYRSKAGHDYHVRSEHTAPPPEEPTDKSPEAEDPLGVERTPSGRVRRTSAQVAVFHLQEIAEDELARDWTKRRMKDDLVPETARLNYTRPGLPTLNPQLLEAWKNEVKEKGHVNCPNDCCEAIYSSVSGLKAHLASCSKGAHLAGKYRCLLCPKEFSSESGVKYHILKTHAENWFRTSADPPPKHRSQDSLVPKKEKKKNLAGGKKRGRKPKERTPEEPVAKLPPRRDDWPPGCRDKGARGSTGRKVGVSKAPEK", "experiment": "co-IP"}
{"binder": "B1", "values": [{"measurement": "reduction of co-precipitated Drosha after RNase A pre-treatment of the extract", "value": 50, "unit": "%"}]}
